Measured values as given in patent US9029508 (dated 2015).

Biological target: DLL4 (human, UniProt Q9NR61)
Test: ELISA

Chain of DLL4 (Q9NR61 27-524): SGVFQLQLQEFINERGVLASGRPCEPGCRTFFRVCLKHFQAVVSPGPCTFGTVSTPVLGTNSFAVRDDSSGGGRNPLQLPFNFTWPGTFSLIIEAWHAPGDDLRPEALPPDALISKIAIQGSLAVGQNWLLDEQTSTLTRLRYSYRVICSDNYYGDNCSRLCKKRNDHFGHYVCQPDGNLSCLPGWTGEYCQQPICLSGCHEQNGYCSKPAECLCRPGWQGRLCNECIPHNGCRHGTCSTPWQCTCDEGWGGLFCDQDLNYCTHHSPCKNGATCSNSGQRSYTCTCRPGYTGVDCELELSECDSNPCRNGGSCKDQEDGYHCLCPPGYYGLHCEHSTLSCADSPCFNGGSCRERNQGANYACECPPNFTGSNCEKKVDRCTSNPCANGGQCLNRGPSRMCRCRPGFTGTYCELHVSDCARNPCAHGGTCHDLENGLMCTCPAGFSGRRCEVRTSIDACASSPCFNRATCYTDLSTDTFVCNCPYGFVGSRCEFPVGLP

Row | Binder | EC50
1 | DVD514 DLL4 arm (antibody, V domains shown, DVD-Ig inner) VH: EVQLQQSGPELEKPGASVKISCKASGYSFTGYNMNWVKQSNGKSLEWIGNIDPYFGGTNYNQKFKGKATLTVDKSSSTAYMQLKSLTSEDSAVYYCARNYDYDGGCFDYWGQGTTLTVSS VL: QAVVTQESALTTSPGETVTLTCRSSTGAVTTSNYANWVQEKPDHLFTGLIGGTNNRAPGVPARFSGSLIGDKAALTITGAQTEDEAIYFCALWYSNHWVFGGGTKLTVLG | 21.1 nM
2 | DVD534 DLL4 arm (antibody, V domains shown, DVD-Ig inner) VH: EVQLQQSGPELEKPGASVKISCKASGYSFTGYNMNWVKQSNGKSLEWIGNIDPYFGGTNYNQKFKGKATLTVDKSSSTAYMQLKSLTSEDSAVYYCARNYDYDGGCFDYWGQGTTLTVSS VL: QAVVTQESALTTSPGETVTLTCRSSTGAVTTSNYANWVQEKPDHLFTGLIGGTNNRAPGVPARFSGSLIGDKAALTITGAQTEDEAIYFCALWYSNHWVFGGGTKLTVLG | 0.47 nM
3 | DVD490 DLL4 arm (antibody, V domains shown, DVD-Ig inner) VH: EVQLQQSGPELVKPGASVKMSCKASGYTFTSYVINWVKQKPGQGLEWIGLINPYNDGTKYNEKFKVKATLTSDKSSSTAYMELSSLTSEDSAVYYCASYYYGSRYYFDYWGQGTTLTVSS VL: DIQMTQSSSYLSVSLGGRVTITCKASDHINNWLAWYQQKPGNAPRLLISGATSLETGVPSRFSGSGSGKDYTLSITSLQTEDVATYYCQQYWSIPLTFGAGTKLELKR | 9.27 nM
4 | DVD444 DLL4 arm (antibody, V domains shown, DVD-Ig inner) VH: QVQLVQSGAEVKKPGASVKISCKASGYSFTAYYIHWVKQAPGQGLEWIGYISSYNGATNYNQKFKGRVTFTTDTSTSTAYMELRSLRSDDTAVYYCARDYDYDVGMDYWGQGTLVTVSS VL: DIVMTQSPDSLAVSLGERATISCRASESVDNYGISFMKWFQQKPGQPPKLLIYAASNQGSGVPDRFSGSGSGTDFTLTISSLQAEDVAVYYCQQSKEVPWTFGGGTKVEIKR | 30.5 nM

The next binders have a lower EC50 than those just listed; values first:

Row | EC50 | Binder
5 | 0.4 nM | DVD451 DLL4 arm (antibody, V domains shown, DVD-Ig outer) VH: QVQLVQSGAEVKKPGASVKISCKASGYSFTAYYIHWVKQAPGQGLEWIGYISSYNGATNYNQKFKGRVTFTTDTSTSTAYMELRSLRSDDTAVYYCARDYDYDVGMDYWGQGTLVTVSS VL: DIVMTQSPDSLAVSLGERATISCRASESVDNYGISFMKWFQQKPGQPPKLLIYAASNQGSGVPDRFSGSGSGTDFTLTISSLQAEDVAVYYCQQSKEVPWTFGGGTKVEIKR
6 | 0.13 nM | DVD457 DLL4 arm (antibody, V domains shown, DVD-Ig outer) VH: QVQLVQSGAEVKKPGASVKISCKASGYSFTAYYIHWVKQAPGQGLEWIGYISSYNGATNYNQKFKGRVTFTTDTSTSTAYMELRSLRSDDTAVYYCARDYDYDVGMDYWGQGTLVTVSS VL: DIVMTQSPDSLAVSLGERATISCRASESVDNYGISFMKWFQQKPGQPPKLLIYAASNQGSGVPDRFSGSGSGTDFTLTISSLQAEDVAVYYCQQSKEVPWTFGGGTKVEIKR
7 | 0.24 nM | DVD455 DLL4 arm (antibody, V domains shown, DVD-Ig outer) VH: QVQLVQSGAEVKKPGASVKISCKASGYSFTAYYIHWVKQAPGQGLEWIGYISSYNGATNYNQKFKGRVTFTTDTSTSTAYMELRSLRSDDTAVYYCARDYDYDVGMDYWGQGTLVTVSS VL: DIVMTQSPDSLAVSLGERATISCRASESVDNYGISFMKWFQQKPGQPPKLLIYAASNQGSGVPDRFSGSGSGTDFTLTISSLQAEDVAVYYCQQSKEVPWTFGGGTKVEIKR
8 | 0.09 nM | DVD453 DLL4 arm (antibody, V domains shown, DVD-Ig outer) VH: QVQLVQSGAEVKKPGASVKISCKASGYSFTAYYIHWVKQAPGQGLEWIGYISSYNGATNYNQKFKGRVTFTTDTSTSTAYMELRSLRSDDTAVYYCARDYDYDVGMDYWGQGTLVTVSS VL: DIVMTQSPDSLAVSLGERATISCRASESVDNYGISFMKWFQQKPGQPPKLLIYAASNQGSGVPDRFSGSGSGTDFTLTISSLQAEDVAVYYCQQSKEVPWTFGGGTKVEIKR
